Assay results published in patent publication US20150274828A1 (SHANGHAI SERUM BIOTECHNOLOGY, published 2015).
Residue numbers refer to the chain shown, from its start.

B1: Ame55 intact antibody (IgG1) (antibody, V domains shown)
VH: EVQLVQSGAEVKKPGESLKISCKGSGYSFTSYWIGWVRQMPGKGLEWMGIIYPGDSDTRYSPSFQGQVTISADKSISTAYLQWSSLKASDTAMYYCARGIIYPSNVAVWGQGTLVTVSS
VL: SYELTQPPSVSVAPGQTARITCSGDALGDKYASWYQQKPGQAPVLVIYEDSKRPSGIPERFSGSNSGNTATLTISGTQAEDEADYYCSVWDGDWGMPVFGGGTKLTVLG
notes: Variable regions cloned into vectors pABL and pABG1 and expressed in HEK293T as intact IgG1 with lambda light chain; also called Amet55; parent antibody Ame55
B2: Ame55 mutant, light chain 89S(A1) (antibody, V domains shown)
VH: B1 VH
VL: B1 VL with V89S
notes: Mutant of Ame55
B3: Ame55 mutant, light chain 93A (antibody, V domains shown)
VH: B1 VH
VL: B1 VL with D93A
notes: Mutant of Ame55
B4: Ame55 mutant, light chain 94A (antibody, V domains shown)
VH: B1 VH
VL: B1 VL with W94A
notes: Mutant of Ame55
B5: Ame55 mutant, light chain 95A (antibody, V domains shown)
VH: B1 VH
VL: B1 VL with G95A
notes: Mutant of Ame55
B6: Ame55 mutant, light chain 95S (antibody, V domains shown)
VH: B1 VH
VL: B1 VL with G95S
notes: Mutant of Ame55
B7: Ame55 mutant, light chain 96A (antibody, V domains shown)
VH: B1 VH
VL: B1 VL with M96A
notes: Mutant of Ame55
B8: Ame55 mutant, light chain 97A (antibody, V domains shown)
VH: B1 VH
VL: B1 VL with P97A
notes: Mutant of Ame55
B9: Ame55 mutant, light chain G28P (antibody, V domains shown)
VH: B1 VH
VL: B1 VL with G28P
notes: Mutant of Ame55
B10: AmeA1C1 (the mutated light chain has Gly at site 26 and Ser at site 89) (antibody, V domains shown)
VH: B1 VH
VL: B1 VL with A26G, V89S
notes: Mutant of Ame55; also called 26G + 89S
B11: AmeA1C3 (the mutated light chain has Lys at site 26 and Ser at site 89) (antibody, V domains shown)
VH: B1 VH
VL: B1 VL with A26K, V89S
notes: Mutant of Ame55; also called 26K + 89S
B12: AmeA2 (Ame55 mutant, light chain 89A(A2)) (antibody, V domains shown)
VH: B1 VH
VL: B1 VL with V89A
notes: Mutant of Ame55
B13: AmeA2C1 (the mutated light chain has Gly at site 26 and Ala at site 89) (antibody, V domains shown)
VH: B1 VH
VL: B1 VL with A26G, V89A
notes: Mutant of Ame55; also called 26G + 89A
B14: AmeA2C3 (the mutated light chain has Lys at site 26 and Ala at site 89) (antibody, V domains shown)
VH: B1 VH
VL: B1 VL with A26K, V89A
notes: Mutant of Ame55; also called 26K + 89A
B15: Ame55 phage single chain antibody (scFv)
scFv: SYELTQPPSVSVAPGQTARITCSGDALGDKYASWYQQKPGQAPVLVIYEDSKRPSGIPERFSGSNSGNTATLTISGTQAEDEADYYCSVWDGDWGMPVFGGGTKLTVLGSGGSTITSYNVYYTKLSSSGSEVQLVQSGAEVKKPGESLKISCKGSGYSFTSYWIGWVRQMPGKGLEWMGIIYPGDSDTRYSPSFQGQVTISADKSISTAYLQWSSLKASDTAMYYCARGIIYPSNVAVWGQGTLVTVSS
notes: the phage coat fusion is not described; also called Ame55 phage antibody; Ame55 single chain antibody
B16: Ame-9B (antibody, V domains shown)
VH: EVQLVESGGGLVQPGGSLRLSCAASGFTFSSYAMSWVRQAPGKGLEWVSAITGTGGETYYADSVKGRFTISRDNSKNTLYLQMNSLRAEDTAVYYCARGWSWTGVDPWGQGTLVTVSS
VL: B1 VL
notes: Expressed in HEK293, purified on Protein A; also called mutant Ame-9B

Legend:
[1] = biological target: T1, EGFR on A431 cell surface (human, UniProt P00533 25-1210); experiment: flow cytometry on A431 cells, antibody 0.03 µg/ml, FITC anti-human IgG
T1 construct: whole, on cells; also called natural EGFR on surface of A431 cell

[2] = biological target: T2, Recombinant human epidermal growth factor (EGF) (human, UniProt P01133 971-1023); experiment: ELISA, EGF coated at 1 µg/well, antibody without EGFR-Fc, HRP goat anti-human IgG
T2 construct: Coated on the ELISA plate; also called EGR
T2 sequence (P01133 971-1023 limits assumed): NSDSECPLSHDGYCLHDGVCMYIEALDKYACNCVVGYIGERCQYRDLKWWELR

[3] = biological target: T3, EGFR-Fc fusion protein (recombinant EGFR extracellular region-Fc) (human, UniProt P00533 25-645); experiment: BLI ForteBio QKe, biotinylated EGFR-Fc on streptavidin sensor, antibody 20 nM; fold reduction of affinity, parent Ame55 = 1;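 also: parent antibody affinity set as 1, with values giving the fold drop in affinity of each mutant antibody relative to that parent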
T3 construct: extracellular domain; not shown: Fc part supplied by vector pABG1

[4] = biological target: T3, EGFR-Fc fusion protein (recombinant …); experiment: BLI ForteBio QKe, biotinylated EGFR-Fc on streptavidin sensor
[5] = biological target: T3, EGFR-Fc fusion protein (recombinant …); experiment: phage ELISA, EGFR-Fc coated, anti-M13-HRP
[6] = biological target: T3, EGFR-Fc fusion protein (recombinant …); experiment: BLI Fortebio, method of Example 5 (biotinylated EGFR-Fc on streptavidin sensor)

Binder	Affinity change [3] [fold]	further results
B1	–	binding result [1]: binds; binding result [2]: no binding
B2	0.5	fold increase of affinity against parent antibody Ame55 [4]: 4 times
B3	> 10	–
B4	> 10	–
B5	> 10	–
B6	> 10	–
B7	> 10	–
B8	> 10	–
B9	> 100	–
B10	< 0.3	–
B11	< 0.2	–
B12	0.25	–
B13	< 0.2	–
B14	< 0.1	–
B15	–	binding result [5]: binds
B16	–	fold decrease of affinity (against Ame55) [6]: ~6 times
